# In paper PMC6167325, “Outward open conformation of a Major Facilitator Superfamily multidrug/H^+ antiporter provides insights into switching mechanism” (Nature Communications, 2018):
# B1: Fab YN1074 (Fab, V domains shown)
# VH: EVQLKESGPGLVAPSQSLSITCTVSGFSFSIYGLHWVRQPPGKGLEWLGMIWGGGRTDYNSALKSRLSISKDNSKSQVFLKMKSLQTDDTAMYYCARNSGYGNLAYWGQGTLVTVSA
# VL: DIVMTQSPSSLSASLGERVSLTCRASQDIGYSLNWLQQEPDGTIKRLIYATSNLDSGVPKRFSGSRSGSDYSLTISSLESEDFVDYYCLQYASSPYTFGGGTKLEIK
# notes: the model holds residues Leu4-Pro216; the model holds residues Asp1-Arg211; also called Fab fragment
# Molecular target: T1, MdfA, major facilitator superfamily (MFS) drug/H+ antiporter from Escherichia coli (Escherichia coli, UniProt P0AEY8)
# T1 construct: MdfA, multidrug/H+ antiporter of E. coli; wild type; the final model of the complex holds residues Gln14-Lys400; One complex in the asymmetric unit; also called MFS-MDR transporter; source: purified
# Experiment: crystal structure; co-crystals of MdfA in complex with the Fab fragment grown in the lipidic cubic phase; 3.4 Å; space group P6(1)22, one complex in the asymmetric unit; data at 100 K
# Details: both partners purified
# T1 sequence (P0AEY8 whole entry, the tested form may be a part): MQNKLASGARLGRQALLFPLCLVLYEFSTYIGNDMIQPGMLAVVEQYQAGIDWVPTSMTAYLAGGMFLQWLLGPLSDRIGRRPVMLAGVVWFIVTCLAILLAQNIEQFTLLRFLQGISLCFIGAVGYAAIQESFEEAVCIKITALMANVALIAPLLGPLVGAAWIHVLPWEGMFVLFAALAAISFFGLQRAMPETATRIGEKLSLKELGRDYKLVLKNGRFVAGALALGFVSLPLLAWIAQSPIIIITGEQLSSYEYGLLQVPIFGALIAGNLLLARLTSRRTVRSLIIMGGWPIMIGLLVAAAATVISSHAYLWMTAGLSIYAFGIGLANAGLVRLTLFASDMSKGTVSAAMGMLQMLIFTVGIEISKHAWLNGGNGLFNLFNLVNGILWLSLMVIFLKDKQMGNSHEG
binder,measurement,value
B1,binding result,binds
